In patent publication US20200277335A1 (LARRK BIO, published 2020):

What was measured:
chemokine receptor CCR8 [1] = target: chemokine receptor CCR8 (UniProt P51685); assay: cell-based or functional assay
chemokine receptor CCR8 [2] = target: chemokine receptor CCR8 (UniProt P51685 1-355, limits assumed); assay: cell-based or functional assay
Sequence of chemokine receptor CCR8 (UniProt P51685 1-355, limits assumed) (P51685 whole entry): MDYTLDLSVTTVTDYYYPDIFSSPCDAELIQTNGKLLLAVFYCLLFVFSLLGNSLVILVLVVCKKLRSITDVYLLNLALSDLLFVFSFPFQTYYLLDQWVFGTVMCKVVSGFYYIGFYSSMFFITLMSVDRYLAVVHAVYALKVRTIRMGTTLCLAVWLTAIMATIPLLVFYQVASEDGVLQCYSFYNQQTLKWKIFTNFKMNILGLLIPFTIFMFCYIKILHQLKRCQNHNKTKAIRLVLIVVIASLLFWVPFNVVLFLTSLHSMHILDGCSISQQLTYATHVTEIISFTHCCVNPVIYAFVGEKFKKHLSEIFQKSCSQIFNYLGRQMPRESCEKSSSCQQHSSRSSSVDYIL

Sequence of chemokine receptor CCR8 (UniProt P51685) (P51685 whole entry): as above

MC148 fusion protein MC148p-TAT-6xHis
inhibition of 1-309 induced chemotaxis (IC50) (chemokine receptor CCR8 [1]): 200 nM

recombinant MC148 protein (from UniProt Q98314 25-104) (ligand)
inhibition of 1-309 induced chemotaxis of cells expressing CCR8 (IC50) (chemokine receptor CCR8 [1]): 2 nM

synthetic MC148 protein (from UniProt Q98314 1-104) (ligand)
inhibition of 1-309 induced chemotaxis (IC50) (chemokine receptor CCR8 [1]): > 15000 nM

VSLARRKCCL [peptide fragment VL-10]
inhibition of 1-309 induced chemotaxis (IC50) (chemokine receptor CCR8 [2]): > 15000 nM
